Here are results for six proteins from patent US20040265965.

Residue numbers refer to the chain shown, from its start. Numbers in names are those of the source. Where “and” joins values, the source holds several entries; their conditions need not be identical. Identical values can stand only once.

The target of this series is MBP-C125Swe (maltose binding protein fused to the C-terminal 125 amino acids of the Swedish variant of APP), P05067.
Sequence of MBP-C125Swe (maltose binding protein fused to the C-terminal 125 amino acids of the Swedish variant of APP), P05067 (P05067 whole entry, looked up, change not shown, the tested form may be a part): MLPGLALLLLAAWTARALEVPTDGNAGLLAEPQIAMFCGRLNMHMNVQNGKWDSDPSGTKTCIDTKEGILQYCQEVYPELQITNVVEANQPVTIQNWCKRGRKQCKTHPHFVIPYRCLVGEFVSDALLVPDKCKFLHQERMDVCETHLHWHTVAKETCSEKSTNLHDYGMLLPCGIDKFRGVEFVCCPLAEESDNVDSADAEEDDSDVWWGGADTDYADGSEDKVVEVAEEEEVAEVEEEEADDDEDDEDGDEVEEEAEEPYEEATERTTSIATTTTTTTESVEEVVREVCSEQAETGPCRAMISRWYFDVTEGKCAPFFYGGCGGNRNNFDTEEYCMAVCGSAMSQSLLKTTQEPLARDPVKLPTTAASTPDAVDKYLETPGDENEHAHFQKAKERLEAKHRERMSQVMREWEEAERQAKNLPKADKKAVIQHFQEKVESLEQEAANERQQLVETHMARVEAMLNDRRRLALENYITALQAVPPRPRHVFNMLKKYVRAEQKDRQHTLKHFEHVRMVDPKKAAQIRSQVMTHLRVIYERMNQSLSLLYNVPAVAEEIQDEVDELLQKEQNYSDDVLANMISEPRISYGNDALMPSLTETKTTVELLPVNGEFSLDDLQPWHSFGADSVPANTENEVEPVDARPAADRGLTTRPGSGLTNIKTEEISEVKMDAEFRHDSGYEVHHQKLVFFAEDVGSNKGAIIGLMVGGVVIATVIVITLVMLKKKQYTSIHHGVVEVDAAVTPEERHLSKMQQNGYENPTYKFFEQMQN

B1: Δ2,3-452Flag soluble BACE (S174I, N223A) (protein)
chain: TQHGIRLPLRSGLGGAPLGLRLPRETDEEPEEPGRRGSFVEMVDNLRGKSGQGYYVEMTVGSPPQTLNILVDTGSSNFAVGAAPHPFLHRYYQRQLSSTYRDLRKGVYVPYTQGKWEGELGTDLVSIPHGPNVTVRANIAAITESDKFFINGINWEGILGLAYAEIARPDDSLEPFFDSLVKQTHVPNLFSLQLCGAGFPLAQSEVLASVGGSMIIGGIDHSLYTGSLWYTPIRREWYYEVIIVRVEINGQDLKMDCKEYNYDKSIVDSGTTNLRLPKKVFEAAVKSIKAASSTEKFPDGFWLGEQLVCWQAGTTPWNIFPVISLYLMGEVTNQSFRITILPQQYLRPVEDVATSQDDCYKFAISQSSTGTVMGAVIMEGFYVVFDRARKRIGFAVSACHVHDEFRTAAVEGPFVTLDMEDCGYNIPQTD
As to B1, the Activity (pM/h/ng enz) was 15800 pM/h/ng enz and 15700 pM/h/ng enz; the Cleavage Product (pM) was 109 pM and 108 pM; the “Substrate Conversion (%)” value was 5.19% and 5.16%; the specific activity entry is “all three proteins (452 Flag, Δ3-452Flag and Δ2,3-452Flag) had similar specific activities”.

B2: 452Flag soluble BACE (membrane truncated BACE with C-terminal Flag epitope tag, fully glycosylated) (protein)
chain: B1 chain with I153S, A202N
With B2, the Activity (pM/h/ng enz) is 14300 pM/h/ng enz and 15200 pM/h/ng enz; the Cleavage Product (pM) is 85 pM and 90 pM; the “Substrate Conversion (%)” value is 4.05% and 4.30%; the specific activity entry is “all three proteins (452 Flag, Δ3-452Flag and Δ2,3-452Flag) had similar specific activities”.

B3: Δ3-452Flag soluble BACE (N223A) (protein)
chain: B1 chain with I153S
As to B3, the Activity (pM/h/ng enz) was 19100 pM/h/ng enz and 20200 pM/h/ng enz; the Cleavage Product (pM) is 126 pM and 119 pM; the “Substrate Conversion (%)” value is 5.68% and 6.01%; the specific activity result is “all three proteins (452 Flag, Δ3-452Flag and Δ2,3-452Flag) had similar specific activities”.

B4: Δ2,3-452H soluble BACE (S174I, N223A, histidine tag), baculovirus/Sf9 (protein)
chain: TQHGIRLPLRSGLGGAPLGLRLPRETDEEPEEPGRRGSFVEMVDNLRGKSGQGYYVEMTVGSPPQTLNILVDTGSSNFAVGAAPHPFLHRYYQRQLSSTYRDLRKGVYVPYTQGKWEGELGTDLVSIPHGPNVTVRANIAAITESDKFFINGINWEGILGLAYAEIARPDDSLEPFFDSLVKQTHVPNLFSLQLCGAGFPLAQSEVLASVGGSMIIGGIDHSLYTGSLWYTPIRREWYYEVIIVRVEINGQDLKMDCKEYNYDKSIVDSGTTNLRLPKKVFEAAVKSIKAASSTEKFPDGFWLGEQLVCWQAGTTPWNIFPVISLYLMGEVTNQSFRITILPQQYLRPVEDVATSQDDCYKFAISQSSTGTVMGAVIMEGFYVVFDRARKRIGFAVSACHVHDEFRTAAVEGPFVTLDMEDCGYNIPQTDE
Turning to B4, the Enzyme activity result is “good activity was obtained for all samples tested”.

B5: 452H,NINL soluble BACE (R42L43P44R45 changed to NINL, histidine tag), baculovirus/Sf9 (protein)
chain: NINLETDEEPEEPGRRGSFVEMVDNLRGKSGQGYYVEMTVGSPPQTLNILVDTGSSNFAVGAAPHPFLHRYYQRQLSSTYRDLRKGVYVPYTQGKWEGELGTDLVSIPHGPNVTVRANIAAITESDKFFINGSNWEGILGLAYAEIARPDDSLEPFFDSLVKQTHVPNLFSLQLCGAGFPLNQSEVLASVGGSMIIGGIDHSLYTGSLWYTPIRREWYYEVIIVRVEINGQDLKMDCKEYNYDKSIVDSGTTNLRLPKKVFEAAVKSIKAASSTEKFPDGFWLGEQLVCWQAGTTPWNIFPVISLYLMGEVTNQSFRITILPQQYLRPVEDVATSQDDCYKFAISQSSTGTVMGAVIMEGFYVVFDRARKRIGFAVSACHVHDEFRTAAVEGPFVTLDMEDCGYNIPQTDE
As to B5, the Enzyme activity result is “good activity was obtained for all samples tested”.

B6: Δ2,3-452H,NINL soluble BACE (S174I, N223A, R42L43P44R45 changed to NINL, histidine tag), baculovirus/Sf9 (protein)
chain: B5 chain with S133I, N182A
For B6, the Enzyme activity entry is “good activity was obtained for all samples tested”.
